{"source": "paper doi:10.1101/2022.04.27.489743", "about": "(bioRxiv, 2022)", "molecules": {"B1": {"name": "Nfasc ankyrin binding domain (ABD), residues 1187-1214 (domain or fragment)", "chain": "SDDSLVDYGEGGEGQFNEDGSFIGQYTV"}, "B2": {"name": "Nfasc 1198-1214 E1204A (peptide)", "chain": "GEGQFNADGSFIGQYTV"}, "B3": {"name": "Nfasc 1198-1214 F1202Q (peptide)", "chain": "GEGQQNEDGSFIGQYTV"}, "B4": {"name": "Nfasc 1198-1214 Y1212E (peptide)", "chain": "GEGQFNEDGSFIGQETV"}}, "experiment_in_all_cases": "ITC", "key": {"[1]": {"biological_target": "AnkG R6-16 (UniProt O70511)", "sequence (O70511 whole entry)": "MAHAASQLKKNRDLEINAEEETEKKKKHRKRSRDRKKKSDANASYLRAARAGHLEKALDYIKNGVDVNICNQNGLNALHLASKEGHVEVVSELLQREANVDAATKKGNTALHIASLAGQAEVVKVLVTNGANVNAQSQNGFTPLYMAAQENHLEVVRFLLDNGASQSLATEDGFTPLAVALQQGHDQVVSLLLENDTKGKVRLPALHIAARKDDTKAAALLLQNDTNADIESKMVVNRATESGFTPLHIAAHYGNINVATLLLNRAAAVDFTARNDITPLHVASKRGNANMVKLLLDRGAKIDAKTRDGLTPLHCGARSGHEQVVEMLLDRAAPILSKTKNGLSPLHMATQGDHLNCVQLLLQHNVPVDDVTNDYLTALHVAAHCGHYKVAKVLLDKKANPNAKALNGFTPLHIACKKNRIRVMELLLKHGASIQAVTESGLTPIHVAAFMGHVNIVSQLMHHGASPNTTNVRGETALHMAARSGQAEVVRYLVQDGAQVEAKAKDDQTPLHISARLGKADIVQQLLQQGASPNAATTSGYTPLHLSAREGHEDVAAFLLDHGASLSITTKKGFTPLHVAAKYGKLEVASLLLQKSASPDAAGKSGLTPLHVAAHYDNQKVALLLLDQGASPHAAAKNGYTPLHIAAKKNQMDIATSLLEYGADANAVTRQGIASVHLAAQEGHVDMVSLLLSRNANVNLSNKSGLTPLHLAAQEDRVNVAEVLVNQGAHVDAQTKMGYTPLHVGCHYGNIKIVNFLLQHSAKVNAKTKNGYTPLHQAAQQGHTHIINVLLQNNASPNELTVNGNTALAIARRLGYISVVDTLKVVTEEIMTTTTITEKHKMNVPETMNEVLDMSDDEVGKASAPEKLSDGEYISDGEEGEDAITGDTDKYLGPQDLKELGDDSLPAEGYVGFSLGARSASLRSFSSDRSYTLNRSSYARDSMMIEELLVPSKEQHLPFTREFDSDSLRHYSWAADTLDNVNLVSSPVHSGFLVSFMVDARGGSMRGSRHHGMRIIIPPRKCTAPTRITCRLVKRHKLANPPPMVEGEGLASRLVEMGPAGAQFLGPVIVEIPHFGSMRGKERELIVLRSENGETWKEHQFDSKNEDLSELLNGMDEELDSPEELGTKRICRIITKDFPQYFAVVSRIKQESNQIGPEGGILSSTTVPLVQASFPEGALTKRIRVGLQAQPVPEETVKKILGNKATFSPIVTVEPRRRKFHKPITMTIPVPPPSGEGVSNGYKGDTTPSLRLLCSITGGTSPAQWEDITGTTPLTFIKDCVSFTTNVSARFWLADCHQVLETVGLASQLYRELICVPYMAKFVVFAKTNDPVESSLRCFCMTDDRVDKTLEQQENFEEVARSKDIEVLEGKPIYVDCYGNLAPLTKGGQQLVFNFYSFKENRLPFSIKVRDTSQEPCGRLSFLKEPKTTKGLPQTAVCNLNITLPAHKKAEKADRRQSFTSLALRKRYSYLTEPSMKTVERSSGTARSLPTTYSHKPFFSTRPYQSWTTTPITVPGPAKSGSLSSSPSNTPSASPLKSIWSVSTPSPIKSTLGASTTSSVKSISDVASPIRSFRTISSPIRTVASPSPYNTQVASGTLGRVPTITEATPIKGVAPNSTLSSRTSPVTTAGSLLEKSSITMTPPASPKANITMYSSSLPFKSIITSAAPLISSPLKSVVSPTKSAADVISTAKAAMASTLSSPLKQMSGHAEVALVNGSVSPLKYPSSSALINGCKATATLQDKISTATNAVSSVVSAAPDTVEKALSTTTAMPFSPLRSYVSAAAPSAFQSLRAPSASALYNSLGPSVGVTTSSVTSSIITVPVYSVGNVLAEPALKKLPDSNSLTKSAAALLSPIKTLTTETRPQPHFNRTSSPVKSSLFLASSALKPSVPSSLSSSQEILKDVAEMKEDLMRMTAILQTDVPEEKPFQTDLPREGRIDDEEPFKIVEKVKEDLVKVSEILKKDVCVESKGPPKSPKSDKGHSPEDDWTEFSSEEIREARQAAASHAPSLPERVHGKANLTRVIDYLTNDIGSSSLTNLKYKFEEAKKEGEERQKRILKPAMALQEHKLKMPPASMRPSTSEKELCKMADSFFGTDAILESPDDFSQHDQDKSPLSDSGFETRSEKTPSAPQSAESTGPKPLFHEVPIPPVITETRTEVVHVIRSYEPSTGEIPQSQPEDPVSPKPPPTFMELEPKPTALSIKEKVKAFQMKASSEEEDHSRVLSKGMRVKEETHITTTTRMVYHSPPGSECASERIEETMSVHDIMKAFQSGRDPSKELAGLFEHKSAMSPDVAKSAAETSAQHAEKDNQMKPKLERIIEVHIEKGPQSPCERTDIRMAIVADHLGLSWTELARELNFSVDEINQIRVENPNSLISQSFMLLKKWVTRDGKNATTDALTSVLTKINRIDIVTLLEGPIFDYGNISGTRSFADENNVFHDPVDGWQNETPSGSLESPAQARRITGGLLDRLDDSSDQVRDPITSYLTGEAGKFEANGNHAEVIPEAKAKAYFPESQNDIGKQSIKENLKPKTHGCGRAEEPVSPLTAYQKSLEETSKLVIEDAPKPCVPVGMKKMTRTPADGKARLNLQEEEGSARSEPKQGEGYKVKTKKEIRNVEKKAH"}, "[2]": {"biological_target": "T1, AnkG 275-571 (AnkG R8-16) (UniProt O70511 275-571)", "T1 sequence": "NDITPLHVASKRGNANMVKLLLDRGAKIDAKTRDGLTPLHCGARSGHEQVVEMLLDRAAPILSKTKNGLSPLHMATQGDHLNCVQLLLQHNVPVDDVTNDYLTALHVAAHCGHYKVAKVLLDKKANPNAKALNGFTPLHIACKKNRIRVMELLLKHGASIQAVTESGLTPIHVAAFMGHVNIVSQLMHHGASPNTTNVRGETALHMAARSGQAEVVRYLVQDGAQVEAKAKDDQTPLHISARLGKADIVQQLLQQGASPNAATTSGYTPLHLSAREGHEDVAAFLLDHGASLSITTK"}, "[3]": {"biological_target": "T2, AnkG ANK repeats (R1-24, residues 38-855) (UniProt O70511 38-855)", "T2 sequence": "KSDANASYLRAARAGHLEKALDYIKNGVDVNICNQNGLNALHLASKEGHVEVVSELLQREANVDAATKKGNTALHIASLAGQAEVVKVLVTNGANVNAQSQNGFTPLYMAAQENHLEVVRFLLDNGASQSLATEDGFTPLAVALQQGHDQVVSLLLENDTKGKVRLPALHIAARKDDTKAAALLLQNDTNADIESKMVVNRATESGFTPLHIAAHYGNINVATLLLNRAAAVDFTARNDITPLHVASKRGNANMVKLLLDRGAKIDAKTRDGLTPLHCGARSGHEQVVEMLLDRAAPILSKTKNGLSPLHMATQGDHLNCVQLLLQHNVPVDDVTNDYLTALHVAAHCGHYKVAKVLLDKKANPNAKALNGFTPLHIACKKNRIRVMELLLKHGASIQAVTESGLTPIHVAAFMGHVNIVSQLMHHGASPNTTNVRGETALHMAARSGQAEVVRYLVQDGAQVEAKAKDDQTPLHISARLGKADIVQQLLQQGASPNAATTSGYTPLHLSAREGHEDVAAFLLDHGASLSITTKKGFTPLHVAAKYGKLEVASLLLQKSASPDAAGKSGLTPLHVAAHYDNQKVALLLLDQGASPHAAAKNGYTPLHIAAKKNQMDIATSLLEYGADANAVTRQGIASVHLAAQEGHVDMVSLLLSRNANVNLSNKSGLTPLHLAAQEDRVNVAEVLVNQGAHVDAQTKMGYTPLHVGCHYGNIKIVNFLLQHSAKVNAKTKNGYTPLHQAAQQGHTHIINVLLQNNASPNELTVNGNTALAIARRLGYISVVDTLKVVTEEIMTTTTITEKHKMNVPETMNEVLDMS"}}}
{"molecule": "Nfasc ankyrin binding domain (ABD), residues 1187-1214 (from UniProt P97685 1187-1214) (domain or fragment)", "values": [{"measurement": "Kd", "setting": "[1]", "result": 290, "unit": "nM"}]}
{"molecule": "B1", "values": [{"measurement": "Kd", "setting": "[2]", "result": "~1200", "unit": "nM"}, {"measurement": "Kd", "setting": "[3]", "result": "~220", "unit": "nM"}]}
{"molecule": "B2", "values": [{"measurement": "fold decrease in binding affinity against Nfasc 1198-1214 WT", "setting": "[3]", "result": "~27", "unit": "fold"}]}
{"molecule": "B3", "values": [{"measurement": "fold decrease in binding against Nfasc 1198-1214 WT", "setting": "[3]", "result": "> 20", "unit": "fold"}]}
{"molecule": "B4", "values": [{"measurement": "fold decrease in binding against Nfasc 1198-1214 WT", "setting": "[3]", "result": "~9", "unit": "fold"}]}
